According to patent US20040175786A1:

Tests used:
[1] = biological target: human CD3 (TCR/CD3 complex) on T-cells (human) (UniProt P07766); test: cell-based or functional assay
[2] = biological target: human CD3 (TCR/CD3 complex) on T-cells (human) (UniProt P07766); test: FACS staining of CD3+ Jurkat cells with polymer fractions
[3] = biological target: human CD3 (TCR/CD3 complex) on T-cells (human) (UniProt P07766); test: FACS staining of CD3+ Jurkat cells

Substance	IL-2 production [1]	INF-γ-production [1]	T-cell proliferation, immobilized Ak [cpm × 10^3] [1]	T-cell proliferation, soluble Ak [cpm × 10^3] [1]	TNF-α-production [1]	percent of Jurkat cells with positive staining [2]	percent of Jurkat cells with positive staining [3]
scOKT3-γ?IgM, C575S (from UniProt P01871 218-435) (Fc fusion)	65 pg/mL	202 pg/mL	3300 cpm	1900 cpm	149 pg/mL	–	–
scOKT3-γ?IgM pentamers	–	–	–	–	–	> 90%	–
scOKT3-γ?IgM, WT Monomers (from UniProt P01871 218-435) (Fc fusion)	52 pg/mL	222 pg/mL	4000 cpm	1800 cpm	166 pg/mL	–	–
scOKT3-γ?IgM, WT (from UniProt P01871 218-435) (Fc fusion)	47 pg/mL	244 pg/mL	4600 cpm	2600 cpm	167 pg/mL	–	–
monoclonal OKT3 antibody	467 pg/mL	1380 pg/mL	12500 cpm	9500 cpm	960 pg/mL	–	> 90%
scOKT3-γ?IgM, C575S Monomers (from UniProt P01871 218-435) (Fc fusion)	73 pg/mL	189 pg/mL	3700 cpm	2400 cpm	169 pg/mL	–	–

Second part, the substance after the results:

IL-2 production [1]	INF-γ-production [1]	T-cell proliferation, immobilized Ak [cpm × 10^3] [1]	T-cell proliferation, soluble Ak [cpm × 10^3] [1]	TNF-α-production [1]	percent of Jurkat cells with positive staining [2]	percent of Jurkat cells with positive staining [3]	Substance
42 pg/mL	232 pg/mL	3500 cpm	2100 cpm	158 pg/mL	–	–	scOKT3-γ?IgM, WT Pentamers/hexamers (from UniProt P01871 218-435) (Fc fusion)
–	–	–	–	–	80%	–	scOKT3-γ?IgM monomers
